Assay results from the Human Domainome abundance scans (Beltran et al. 2025).
± gives the uncertainty stated by the source.

B1: SWI/SNF complex subunit SMARCC1, residues 620 to 663; numbered along this chain, Q92922 (parent)
chain: GREWTEQETLLLLEALEMYKDDWNKVSEHVGSRTQDECILHFLR

Variants of: B1
Experiment: abundance fitness (aPCA) (normalised: wild type 0, dead -1); higher = more abundant; growth selection in yeast, the domain comes from the species named
Details: Homo sapiens
Variant GREWTEQETLLLLEALEMYKDDWNKVSEHVGSRTQDNCILHFLR [E37N] has an abundance fitness of -0.717 ± 0.41.
In the case of GREWTEQETLLLLEALEMYKDDWNKVSEHVGSRTQDQCILHFLR [E37Q], the abundance fitness is reported as -0.303 ± 0.18.
Variant GREWTEQETLLLLEALEMYKDDWNKVSEHVGSRTQDGCILHFLR [E37G] has an abundance fitness of -0.722 ± 0.21.
GREWTEQETLLLLEALEMYKDDWNKVSEHVGSRTQDSCILHFLR [E37S] gave an abundance fitness of -0.533 ± 0.14.
GREWTEQETLLLLEALEMYKDDWNKVSEHVGSRTQDTCILHFLR [E37T] gave an abundance fitness of -0.738 ± 0.13.
GREWTEQETLLLLEALEMYKDDWNKVSEHVGSRTQDVCILHFLR [E37V] gave an abundance fitness of -1.01 ± 0.23.
With GREWTEQETLLLLEALEMYKDDWNKVSEHVGSRTQDHCILHFLR [E37H] the abundance fitness was -0.668 ± 0.14.
Work on GREWTEQETLLLLEALEMYKDDWNKVSEHVGSRTQDFCILHFLR [E37F] yielded an abundance fitness of -1.02 ± 0.37.
In the case of GREWTEQETLLLLEALEMYKDDWNKVSEHVGSRTQDDCILHFLR [E37D], the abundance fitness is reported as 0.021 ± 0.11.
Work on GREWTEQETLLLLEALEMYKDDWNKVSEHVGSRTQDESILHFLR [C38S] yielded an abundance fitness of -0.624 ± 0.087.
With GREWTEQETLLLLEALEMYKDDWNKVSEHVGSRTQDEVILHFLR [C38V] the abundance fitness was -0.348 ± 0.089.
GREWTEQETLLLLEALEMYKDDWNKVSEHVGSRTQDELILHFLR [C38L] gave an abundance fitness of -0.5 ± 0.11.
Work on GREWTEQETLLLLEALEMYKDDWNKVSEHVGSRTQDEIILHFLR [C38I] yielded an abundance fitness of -0.361 ± 0.076.
Work on GREWTEQETLLLLEALEMYKDDWNKVSEHVGSRTQDEYILHFLR [C38Y] yielded an abundance fitness of -0.903 ± 0.33.
Variant GREWTEQETLLLLEALEMYKDDWNKVSEHVGSRTQDEDILHFLR [C38D] has an abundance fitness of -0.296 ± 0.17.
For GREWTEQETLLLLEALEMYKDDWNKVSEHVGSRTQDEWILHFLR [C38W], the abundance fitness was -0.79 ± 0.31.
Variant GREWTEQETLLLLEALEMYKDDWNKVSEHVGSRTQDETILHFLR [C38T] has an abundance fitness of -0.4 ± 0.12.
Variant GREWTEQETLLLLEALEMYKDDWNKVSEHVGSRTQDERILHFLR [C38R] has an abundance fitness of -0.367 ± 0.13.
Variant GREWTEQETLLLLEALEMYKDDWNKVSEHVGSRTQDEMILHFLR [C38M] has an abundance fitness of -1.09 ± 0.34.
Variant GREWTEQETLLLLEALEMYKDDWNKVSEHVGSRTQDEQILHFLR [C38Q] has an abundance fitness of -0.514 ± 0.16.
Work on GREWTEQETLLLLEALEMYKDDWNKVSEHVGSRTQDEGILHFLR [C38G] yielded an abundance fitness of -0.778 ± 0.21.
GREWTEQETLLLLEALEMYKDDWNKVSEHVGSRTQDEHILHFLR [C38H] showed an abundance fitness of -0.774 ± 0.17.
With GREWTEQETLLLLEALEMYKDDWNKVSEHVGSRTQDEPILHFLR [C38P] the abundance fitness was -0.73 ± 0.12.
Work on GREWTEQETLLLLEALEMYKDDWNKVSEHVGSRTQDEAILHFLR [C38A] yielded an abundance fitness of -0.572 ± 0.11.
GREWTEQETLLLLEALEMYKDDWNKVSEHVGSRTQLECILHFLR [D36L] gave an abundance fitness of -0.383 ± 0.073.
GREWTEQETLLLLEALEMYKDDWNKVSEHVGSRTQHECILHFLR [D36H] showed an abundance fitness of -0.092 ± 0.09.
In the case of GREWTEQETLLLLEALEMYKDDWNKVSEHVGSRTQYECILHFLR [D36Y], the abundance fitness is reported as -0.374 ± 0.12.
Variant GREWTEQETLLLLEALEMYKDDWNKVSEHVGSRTQVECILHFLR [D36V] has an abundance fitness of -0.354 ± 0.075.
For GREWTEQETLLLLEALEMYKDDWNKVSEHVGSRTQPECILHFLR [D36P], the abundance fitness was -0.083 ± 0.066.
Work on GREWTEQETLLLLEALEMYKDDWNKVSEHVGSRTQIECILHFLR [D36I] yielded an abundance fitness of -0.342 ± 0.094.
Variant GREWTEQETLLLLEALEMYKDDWNKVSEHVGSRTQQECILHFLR [D36Q] has an abundance fitness of 0.041 ± 0.11.
Work on GREWTEQETLLLLEALEMYKDDWNKVSEHVGSRTQWECILHFLR [D36W] yielded an abundance fitness of -0.299 ± 0.14.
With GREWTEQETLLLLEALEMYKDDWNKVSEHVGSRTQTECILHFLR [D36T] the abundance fitness was -0.042 ± 0.077.
Work on GREWTEQETLLLLEALEMYKDDWNKVSEHVGSRTQAECILHFLR [D36A] yielded an abundance fitness of -0.034 ± 0.064.
GREWTEQETLLLLEALEMYKDDWNKVSEHVGSRTQCECILHFLR [D36C] gave an abundance fitness of -0.126 ± 0.16.
GREWTEQETLLLLEALEMYKDDWNKVSEHVGSRTQRECILHFLR [D36R] gave an abundance fitness of -0.017 ± 0.054.
Work on GREWTEQETLLLLEALEMYKDDWNKVSEHVGSRTQSECILHFLR [D36S] yielded an abundance fitness of 0.021 ± 0.056.
GREWTEQETLLLLEALEMYKDDWNKVSEHVGSRTQEECILHFLR [D36E] showed an abundance fitness of -0.002 ± 0.078.
GREWTEQETLLLLEALEMYKDDWNKVSEHVGSRTQMECILHFLR [D36M] showed an abundance fitness of -0.375 ± 0.17.
With GREWTEQETLLLLEALEMYKDDWNKVSEHVGSRTQFECILHFLR [D36F] the abundance fitness was -0.327 ± 0.11.
For GREWTEQETLLLLEALEMYKDDWNKVSEHVGSRTQGECILHFLR [D36G], the abundance fitness was 0.039 ± 0.1.
In the case of GREWTEQETLLLLEALEMYKDDWNKVSEHVGSRTNDECILHFLR [Q35N], the abundance fitness is reported as 0.063 ± 0.083.
Variant GREWTEQETLLLLEALEMYKDDWNKVSEHVGSRTKDECILHFLR [Q35K] has an abundance fitness of 0.261 ± 0.061.
For GREWTEQETLLLLEALEMYKDDWNKVSEHVGSRTLDECILHFLR [Q35L], the abundance fitness was -0.077 ± 0.073.
For GREWTEQETLLLLEALEMYKDDWNKVSEHVGSRTGDECILHFLR [Q35G], the abundance fitness was 0.056 ± 0.065.
Variant GREWTEQETLLLLEALEMYKDDWNKVSEHVGSRTSDECILHFLR [Q35S] has an abundance fitness of 0.073 ± 0.058.
GREWTEQETLLLLEALEMYKDDWNKVSEHVGSRTVDECILHFLR [Q35V] showed an abundance fitness of -0.017 ± 0.064.
In the case of GREWTEQETLLLLEALEMYKDDWNKVSEHVGSRTMDECILHFLR [Q35M], the abundance fitness is reported as -0.061 ± 0.36.
For GREWTEQETLLLLEALEMYKDDWNKVSEHVGSRTWDECILHFLR [Q35W], the abundance fitness was -0.336 ± 0.15.
GREWTEQETLLLLEALEMYKDDWNKVSEHVGSRTTDECILHFLR [Q35T] showed an abundance fitness of 0.044 ± 0.073.
In the case of GREWTEQETLLLLEALEMYKDDWNKVSEHVGSRTCDECILHFLR [Q35C], the abundance fitness is reported as 0.079 ± 0.15.
GREWTEQETLLLLEALEMYKDDWNKVSEHVGSRTDDECILHFLR [Q35D] gave an abundance fitness of 0.05 ± 0.41.
GREWTEQETLLLLEALEMYKDDWNKVSEHVGSRTYDECILHFLR [Q35Y] gave an abundance fitness of -0.166 ± 0.1.
Variant GREWTEQETLLLLEALEMYKDDWNKVSEHVGSRTADECILHFLR [Q35A] has an abundance fitness of -0.038 ± 0.076.
Work on GREWTEQETLLLLEALEMYKDDWNKVSEHVGSRTIDECILHFLR [Q35I] yielded an abundance fitness of -0.186 ± 0.18.
Variant GREWTEQETLLLLEALEMYKDDWNKVSEHVGSRTPDECILHFLR [Q35P] has an abundance fitness of -0.136 ± 0.079.
With GREWTEQETLLLLEALEMYKDDWNKVSEHVGSRTEDECILHFLR [Q35E] the abundance fitness was -0.075 ± 0.079.
GREWTEQETLLLLEALEMYKDDWNKVSEHVGSRTHDECILHFLR [Q35H] showed an abundance fitness of 0.012 ± 0.095.
